Experimental data as given in the DeepSol protein solubility set.

Assay: soluble on expression in E. coli; label from the status in PepcDB or PDB records

Sequence	soluble on expression in E. coli
AVPIAQKSEPHSLSSEALMRRAVSLVTDSTSTFLSQTTYALIEAITEYTKAVYTLTSLYRQYTSLLGKMNSEEEDEVWQVIIGARAEMTSKHQEYLKLETTWMTAVGLSEMAAEAAYQTGADQASITARNHIQLVKLQVEEVHQLSRKAETKLAEAQIEELKQKTQEEGEERAESEQEAYLRED	soluble
MGSDKIHHHHHHMGKSFYRFRSTNNLLDGYSELEKQTIYFARPEQLNDPMEGYRDIYWRGDLIAWKNLFAHYVFCLERISSLLLISGEDNKIDADHIPVFGSTDDLPTDSYKNLFRKIKARFLENKYVSALILAISKRSTPIRREELAFYYDCMHIPALKLIFDVYIEENLSQEGNRIDDKAFAGISGVVSNDFVGLLEKSITDGEADQVIVNELFKAKSHIKQQSNLIHKHNGTISSSKPNKNLLMIDFPSLYLNRLEEITFPKWYTSCFMSECKNSSVWGHYGNNHTGMCLIFDSENINDRSYIKLNGITGWGSSGPIYGDKAMEFHPIDYKKGFGEIDFFTSIGSLPIPVLNTMWYMDEAGNTSVCANKMNVDEDAWRSNYWSNFIRGLTVKSKDWEYENEYRLILHSSITDLSEKDRRTLTYDFSSLKGIIFGINTKEEDKLKTIKIIEDKCNKHSRSDFKFYQAYYCADENCIKSVEMSLVKFSGNV	not soluble
TDKPRHRFFDAETEALYARLARALPGYDFALQGWNRDEDTFIVAAYNDRTPGSRYLYDARRDSLHKLADINPAIPEADMAPVRPVSYQSRDGLTIHGYLTLPAGRAPRNLACIVNPHGGPWARDGWGYNPEVQFLANRGFCVLQMNFRGSTGYGRKFWEAGFGQWGLKMQDDITDGVQWLIDQGIADPRRIGIYGGSYGGYATLAGVAFTPDLYAAAVDYVGVSNLFTFMNTIPPYWKPLLAKMQDMVGDPVRDKARLEATSPALHVDRIKTPLFIAQGAKDPRVNKAESDQVVQALRQRGVEVEYMVKDNEGHGFHNDENKFEFYAAMEKFFTEHLK	not soluble
MSLAGFVVTDVTVATCSILNPFSSCKSSAPWWTQVEKDLYLRTGWTSAAYIRFQRKKEEELLPADKVVIDLKISRLAPEVQDDPKEDKADWEQRPGGIWLKRTAKRHASDSHSAITSVDVLFGADAVDPRPGWEVKDTPILLDSRTESLEARITVRRGDPLKIKKPVPRINENGRFKIMQLADLHLSTGLGHCRDPVPPELIPGQGCEADPRTLDFIERLLDEEQPDLVILSGDQVNGETSRDAQSPLFKSVKLLVDRKIPYAAIFGNHDDEGNLDRHQSMAILEDLPYSLSSAGPEDIDGVGNYIVEVLGRGNTDHSALTLYLLDSHSYSPDERQFRGYDWIKPNQIRWFKTTAQGLKAKHQQYAYMHMNMAFIHIPLPEFAQRGNYFRGNWSEPSTAPGFNSGFKDALEEEGILFVGCGHDHANDYCALSKNEAQKPSLWMCYGGGAGFGGYGGYGGFIRRVRFFDFDMNPGRVVTYKRLEYGNTDARIDEMMIVDGGMVKGPDEGHHHHHH	soluble
MCGIVGFIGEQDAKEILLKGLEKLEYRGYDSAGIAVQAENGVVVYKEKGRIAKLREIVDENVAASVGIGHTRWATHGVPSKVNAHPHQSTSKRFTLVHNGVIENYELVKKEYLQDVTFVSETDTEVIVQLMEQQVSTGLSVEEAFRNTLSLLHGSYAIGLLDAENPNMIYVAKNKSPLLVGVGDNFNVVASDAMAMLQVTDQFIELMDKEIVIVMKESITIKNLQGETIERAPFTAELDASDIEKGTYPHFMLKEIDEQPLVIRNIIQKYQDENGEIELDQDIRNAILDSDRIYIIACGTSYHAGLVGKQFIEKFAKMPVEVHVASEFSYNMPLLTERPFFIYISQSGETADSRAVLVQTNEMGHKALTITNVPGSTLSREADYTLPLYAGPEIAVASTKAYTAQLAVLSILAADIAKAKGEVLGFDLTHELGLVANAMIELCDQKEEMDALAKQFLATTRNCFFIGRSVDFYVGLEGALKLKEISYIQAEGFAGGELKHGTIALIENGTPVIALATQEHVNLGIRGNVKEVVARGANPCIISMKGLEMEGDSFVLPAVHEALAPLVAVIPLQLISYYAALHRECDVDKPRNLAKSVTVE	not soluble
MIIEFLKKLLAGTPETVPAKETKRMTKVLVLYYSSYGHIETMAYAVAEGVESTGAEAVVKRVPELVPEEVAKSSHFKMDQPAPVATVDELAEYDAIIVGAGTRFGTVASQMRNFWDQTGGLWFSGKLVGKVGSAFTSSATQHGGQESTILGFIPTFLHHGMAVVGLPYAFQGQMGVDEIKGGSPYGASTITDGDGSRQPSAIELDAARYQGAHVAKLAAKLSA	not soluble
MAHHHHHHMMGISPEAVLLDFDWTASYVLATDRLSTAAMNRATARTVSMEGGADGADTKPRNSGGGMPLLQLAMDVARVAPPSEVASISPLVSPVSGVRLQLLATASSEMQGGGEGQPAERMLLPNDRLTMELDAESLDALIAALRTAVDGMDSLSGC	not soluble
